# Experimental data as given in patent US20190271704.
# B1: neutrophil elastase (NE) (protein)
# chain: IVGGRRARPHAWPFMVSLQLRGGHFCGATLIAPNFVMSAAHCVANVNVRAVRVVLGAHNLSRREPTRQVFAVQRIFENGYDPVNLLNDIVILQLNGSATINANVQVAQLPAQGRRLGNGVQCLAMGWGLLGRNRGIASVLQELNVTVVTSLCRRSNVCTLVRGRQAGVCFGDSGSPLVCNGLIHGIASFVRGGCASGLYPDAFAPVAQFVNWIDSIIQ
# Columns and labels:
# [1] = target: T1, NE nanosensor with heptafluorobutylamine reporter (peptide-PFC conjugated to a 40 kDa 8-arm PEG scaffold)
# T1 chain: CKKKXXXX
# [2] = target: T2, NE nanosensor with pentafluoropropylamine reporter (peptide-PFC conjugated to a 40 kDa 8-arm PEG scaffold)
# T2 chain: CKKKXXXX
# [3] = target: T3, NE peptide substrate with acetylated N-terminal CKKK-PEG4 linker and C-terminal pentafluoropropylamine reporter (peptide-PFC) (not fully specified)
# T3 chain: CKKKXXXX
# [4] = target: T4, NE peptide substrate with acetylated N-terminal CKKK-PEG4 linker and C-terminal heptafluorobutylamine reporter (peptide-PFC) (not fully specified)
# T4 chain: CKKKXXXX
protein,measurement,setting,value
B1,kcat/Km (Michaelis-Menten kinetics of substrate cleavage),[1],kcat/Km values were on the order of 10^5 M^-1s-^-1
same,kcat/Km (Michaelis-Menten kinetics of substrate cleavage),[2],kcat/Km values were on the order of 10^5 M^-1s-^-1
same,PFC release from the peptide substrate (real-time vapor analysis mass spectrometry),[3],cleaved specifically by NE
same,PFC release from the peptide substrate (real-time vapor analysis mass spectrometry),[4],cleaved specifically by NE
